For one sequence, binding results are on record in publication PMC13049129.

This data set has as its target HnRNPA3-Myc (Homo sapiens) (UniProt P51991). Briefly: EMSA. The settings on record: RNA-EMSA: 40 mM Tris pH 7.4, 30 mM KCl, 1 mM MgCl2, 0.1% IGEPAL CA-630, 1 mM DTT, 10 ug/ml BSA, 37 C, 30 min; 15% polyacrylamide gel stated to contain 8 M urea.

HnRNPA3-Myc (Homo sapiens), sequence (P51991 whole entry): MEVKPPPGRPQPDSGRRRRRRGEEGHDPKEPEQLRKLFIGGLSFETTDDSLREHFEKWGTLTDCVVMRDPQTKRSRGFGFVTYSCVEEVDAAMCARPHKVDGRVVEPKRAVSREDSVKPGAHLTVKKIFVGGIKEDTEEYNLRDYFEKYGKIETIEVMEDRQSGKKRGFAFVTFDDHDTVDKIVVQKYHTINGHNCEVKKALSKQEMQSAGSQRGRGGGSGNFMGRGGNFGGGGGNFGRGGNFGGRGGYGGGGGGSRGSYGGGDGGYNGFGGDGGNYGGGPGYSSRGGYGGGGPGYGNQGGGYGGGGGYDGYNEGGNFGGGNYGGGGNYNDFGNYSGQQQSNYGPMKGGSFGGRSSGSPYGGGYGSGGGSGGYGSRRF

Take “GGGAUGUUAAAGAUGAGCGGGUGGCAGCGACAGAGCCAAAAUCAGAGCUGGAACCUGAGGAGAGAGUGUUCAAGAAGGAAGUGUAUCUUCAUACAUCACCACACCUGAAA [huORFchop RNA (105 nt)]”: the binding entry was “binds”.
